In the Human Domainome abundance scans (Beltran et al. 2025):
± gives the uncertainty stated by the source.

B1: KAT8 regulatory NSL complex subunit 2, residues 28 to 91; numbered along this chain, Q9H9L4 (parent)
chain: CAFTHRPCSHPRLEGQEFCIKHILEDKNAPFKQCSYISTKNGKRCPNAAPKPEKKDGVSFCAEH

Variants of: B1
Assay: abundance fitness (aPCA) (normalised: wild type 0, dead -1); higher = more abundant; growth selection in yeast, the domain comes from the species named
Conditions: Homo sapiens

Abundance fitness: each site, then its substitutions
K32: I -0.135 ± 0.085, H -0.185 ± 0.085, D -0.136 ± 0.11
S35: Q -0.103 ± 0.098, R -0.105 ± 0.065, L -0.14 ± 0.048, A -0.04 ± 0.06, C 0.003 ± 0.11, F -0.012 ± 0.069, T -0.104 ± 0.058, H -0.333 ± 0.21, K -0.046 ± 0.069, E -0.014 ± 0.064, G -0.047 ± 0.052, W -0.169 ± 0.1, Y -0.113 ± 0.1, N -0.117 ± 0.075, V -0.031 ± 0.053, D -0.057 ± 0.12, I -0.177 ± 0.095, P -0.177 ± 0.074
I37: A -0.177 ± 0.062, H 0.039 ± 0.15, K -0.107 ± 0.1, D -0.302 ± 0.15, Q -0.031 ± 0.12, R -0.045 ± 0.045, E -0.042 ± 0.095, C -0.032 ± 0.12, T 0.038 ± 0.069, Y -0.137 ± 0.098, W -0.127 ± 0.052, S -0.061 ± 0.062, P -0.142 ± 0.079, G -0.022 ± 0.04, M 0.046 ± 0.092, L -0.044 ± 0.047, N -0.042 ± 0.13
C34: R -0.578 ± 0.071, V -0.541 ± 0.066, G -0.339 ± 0.063, N -0.33 ± 0.08, W -0.674 ± 0.065, H -0.453 ± 0.092, Q -0.41 ± 0.12, P -0.346 ± 0.12, F -0.664 ± 0.17, S -0.321 ± 0.058, E -0.185 ± 0.073, T -0.71 ± 0.097, Y -0.604 ± 0.093, I -0.56 ± 0.16, M -0.542 ± 0.089, A -0.446 ± 0.096, K -0.484 ± 0.1
G42: C -0.105 ± 0.066, D -0.092 ± 0.075, A -0.053 ± 0.06, E -0.005 ± 0.075, F -0.22 ± 0.097
Q33: C -0.255 ± 0.14, V -0.03 ± 0.06, P -0.036 ± 0.063, M -0.062 ± 0.056, K -0.05 ± 0.061, A 0.011 ± 0.061, N -0.11 ± 0.073, Y -0.071 ± 0.1, S -0.182 ± 0.061, L 0.004 ± 0.055, D -0.238 ± 0.12, G -0.142 ± 0.063, F -0.217 ± 0.14, I -0.124 ± 0.087, T 0.017 ± 0.099, R -0.081 ± 0.053, E -0.049 ± 0.088
K40: W -0.401 ± 0.38, Y -0.052 ± 0.19, D -0.14 ± 0.17, L 0.184 ± 0.32, F -0.037 ± 0.23, G -0.196 ± 0.29, S -0.299 ± 0.43
